Measurements published in article PMC10143966, “The Replicative DnaE Polymerase of Bacillus subtilis Recruits the Glycolytic Pyruvate Kinase (PykA) When Bound to Primed DNA Templates” (Life, 2023).
Like-named read-outs stand apart in the source and are kept apart here.

Assays:
[1] = target: T1, B. subtilis DnaE polymerase (B. subtilis, UniProt O34623 1-1115); assay: SPR; 5'-biotinylated primed DNA probe (30 mer annealed to 110 mer) immobilised on a streptavidin SA chip (about 100 RU); DnaE (35 nM) added with increasing concentrations of PykA (0-1000 nM), CAT or PEPut; Biacore T200, 200 uL/min, 25 °C, 25 mM NaCl, 25 mM MgCl2, 150 mM Tris-HCl pH 7.5, 1 mM DTT; maximum RU values fitted to a one site-specific binding curve
T1 construct: DnaE DNA polymerase, Bacillus subtilis; also called replicative DnaE polymerase; lagging strand DNA polymerase
T1 sequence (looked up): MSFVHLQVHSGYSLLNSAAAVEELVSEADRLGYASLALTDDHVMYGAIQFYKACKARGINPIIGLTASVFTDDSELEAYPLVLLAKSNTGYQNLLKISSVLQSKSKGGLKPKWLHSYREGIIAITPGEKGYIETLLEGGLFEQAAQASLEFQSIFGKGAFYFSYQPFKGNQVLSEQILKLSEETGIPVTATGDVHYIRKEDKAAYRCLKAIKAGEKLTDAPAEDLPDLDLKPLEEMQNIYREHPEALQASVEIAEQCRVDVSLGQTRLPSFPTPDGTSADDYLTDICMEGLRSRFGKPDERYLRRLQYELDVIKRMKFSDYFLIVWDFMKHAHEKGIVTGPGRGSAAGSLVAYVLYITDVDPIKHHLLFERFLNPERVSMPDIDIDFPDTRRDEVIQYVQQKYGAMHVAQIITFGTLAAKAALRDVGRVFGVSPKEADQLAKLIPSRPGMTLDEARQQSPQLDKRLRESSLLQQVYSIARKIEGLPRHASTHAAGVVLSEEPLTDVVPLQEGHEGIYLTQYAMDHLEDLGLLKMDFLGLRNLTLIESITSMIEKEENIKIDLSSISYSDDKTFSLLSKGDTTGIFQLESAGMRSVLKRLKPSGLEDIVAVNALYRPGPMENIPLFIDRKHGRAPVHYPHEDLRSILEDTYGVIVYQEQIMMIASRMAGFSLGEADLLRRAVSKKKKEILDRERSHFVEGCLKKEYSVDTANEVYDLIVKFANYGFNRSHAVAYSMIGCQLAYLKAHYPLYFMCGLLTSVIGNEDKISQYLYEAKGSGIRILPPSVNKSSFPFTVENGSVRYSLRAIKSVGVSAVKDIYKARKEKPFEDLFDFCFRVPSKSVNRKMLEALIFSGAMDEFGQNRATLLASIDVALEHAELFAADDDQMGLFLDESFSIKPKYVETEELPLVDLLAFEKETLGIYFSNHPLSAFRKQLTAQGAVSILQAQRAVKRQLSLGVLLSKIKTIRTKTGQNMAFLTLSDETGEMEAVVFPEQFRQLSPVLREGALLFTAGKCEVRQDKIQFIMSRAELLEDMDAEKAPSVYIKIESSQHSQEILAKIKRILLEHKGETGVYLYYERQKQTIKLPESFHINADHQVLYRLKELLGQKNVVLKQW

[2] = target: T2, PykA CAT domain (Bacillus subtilis, UniProt P80885 2-473); assay: SPR; no DnaE; 25 mM MgCl2; SPR (Biacore T200, SA chip): 25 mM NaCl, 25 mM MgCl2, 150 mM Tris-HCl pH 7.5, 1 mM DTT, 25 °C; conditions: protein: recombinant; tags: His-MBP removed by TEV; label: 5' biotin on 110 mer (strand 1); 30 mer primer annealed to 110 mer template, ssDNA on both sides; 5' A of the primer may be near/at the CCCCCT junction
T2 sequence: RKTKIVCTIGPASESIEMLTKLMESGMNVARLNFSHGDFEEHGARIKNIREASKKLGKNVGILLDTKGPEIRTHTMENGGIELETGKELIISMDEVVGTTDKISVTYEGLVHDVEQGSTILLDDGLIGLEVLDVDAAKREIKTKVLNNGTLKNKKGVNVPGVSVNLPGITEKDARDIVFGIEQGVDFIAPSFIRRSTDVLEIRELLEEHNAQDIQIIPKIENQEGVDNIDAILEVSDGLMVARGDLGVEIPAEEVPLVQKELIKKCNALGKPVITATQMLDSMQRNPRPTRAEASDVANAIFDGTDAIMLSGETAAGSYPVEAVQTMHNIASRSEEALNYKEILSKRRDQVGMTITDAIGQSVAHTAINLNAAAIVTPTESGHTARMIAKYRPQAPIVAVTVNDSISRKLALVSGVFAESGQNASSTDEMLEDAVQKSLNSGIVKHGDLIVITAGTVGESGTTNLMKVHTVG

[3] = target: T3, PykA pyruvate kinase (Bacillus subtilis, UniProt P80885 1-585); assay: as above; conditions: protein: recombinant; tags: His-MBP removed by TEV; chain copies: 4; label: 5' biotin on 110 mer (strand 1); 30 mer primer annealed to 110 mer template, ssDNA on both sides; 5' A of the primer may be near/at the CCCCCT junction
T3 sequence: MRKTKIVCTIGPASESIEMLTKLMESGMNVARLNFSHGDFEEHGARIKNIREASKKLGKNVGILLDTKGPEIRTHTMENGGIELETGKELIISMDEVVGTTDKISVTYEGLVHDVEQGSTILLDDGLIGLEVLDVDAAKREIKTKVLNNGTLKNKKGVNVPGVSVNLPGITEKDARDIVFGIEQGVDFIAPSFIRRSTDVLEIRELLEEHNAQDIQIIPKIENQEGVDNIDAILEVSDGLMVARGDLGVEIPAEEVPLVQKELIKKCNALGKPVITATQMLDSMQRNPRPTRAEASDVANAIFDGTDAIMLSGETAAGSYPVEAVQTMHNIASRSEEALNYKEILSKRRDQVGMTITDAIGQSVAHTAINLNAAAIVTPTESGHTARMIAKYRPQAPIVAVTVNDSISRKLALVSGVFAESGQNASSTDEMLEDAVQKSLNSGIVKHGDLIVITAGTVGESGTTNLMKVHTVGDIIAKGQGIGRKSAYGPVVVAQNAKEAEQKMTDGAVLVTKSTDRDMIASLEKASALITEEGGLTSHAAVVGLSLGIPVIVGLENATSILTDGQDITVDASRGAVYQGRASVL

[4] = target: T4, PykA PEPut domain (Bacillus subtilis, UniProt P80885 494-585); assay: as above; conditions: protein: recombinant; tags: His-MBP removed by TEV; label: 5' biotin on 110 mer (strand 1); 30 mer primer annealed to 110 mer template, ssDNA on both sides; 5' A of the primer may be near/at the CCCCCT junction
T4 sequence: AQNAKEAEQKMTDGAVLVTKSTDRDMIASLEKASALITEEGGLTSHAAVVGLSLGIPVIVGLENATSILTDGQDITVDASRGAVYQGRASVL

[5] = target: DnaE polymerase (Bacillus subtilis, UniProt O34623 1-1115); assay: SPR; 25 mM MgCl2; DnaE 0-700 nM; SPR (Biacore T200, SA chip): 25 mM NaCl, 25 mM MgCl2, 150 mM Tris-HCl pH 7.5, 1 mM DTT, 25 °C; conditions: protein: recombinant; label: 5' biotin on 110 mer (strand 1); 30 mer primer annealed to 110 mer template, ssDNA on both sides; 5' A of the primer may be near/at the CCCCCT junction
[6] = target: DnaE polymerase;PykA CAT domain (Bacillus subtilis;Bacillus subtilis, UniProt O34623;P80885 1-1115;2-473, |); assay: SPR; CAT titrated onto DnaE (35 nM) on DNA; Kd is for CAT to DnaE-DNA complex; 25 mM MgCl2; SPR (Biacore T200, SA chip): 25 mM NaCl, 25 mM MgCl2, 150 mM Tris-HCl pH 7.5, 1 mM DTT, 25 °C; conditions: protein: recombinant;recombinant; tags: ;His-MBP removed by TEV; label: 5' biotin on 110 mer (strand 1); 30 mer primer annealed to 110 mer template, ssDNA on both sides; 5' A of the primer may be near/at the CCCCCT junction
[7] = target: DnaE polymerase;PykA pyruvate kinase (Bacillus subtilis;Bacillus subtilis, UniProt O34623;P80885 1-1115;1-585, |); assay: SPR; PykA titrated (0-1000 nM) onto DnaE (35 nM) on DNA; Kd is for PykA to DnaE-DNA complex; 25 mM MgCl2; SPR (Biacore T200, SA chip): 25 mM NaCl, 25 mM MgCl2, 150 mM Tris-HCl pH 7.5, 1 mM DTT, 25 °C; conditions: protein: recombinant;recombinant; tags: ;His-MBP removed by TEV; copies: 1;4; label: 5' biotin on 110 mer (strand 1); 30 mer primer annealed to 110 mer template, ssDNA on both sides; 5' A of the primer may be near/at the CCCCCT junction

Molecule: CAT domain of B. subtilis PykA (domain or fragment)
- Kd [1]: 7.33 nM

B1: B. subtilis pyruvate kinase PykA, full-length, wild type (enzyme, UniProt P80885 1-585, looked up)
chain: T3 sequence
notes: PykA pyruvate kinase, Bacillus subtilis; 1755 bp pykA fragment amplified from genomic DNA, cloned into p2CT; the same vector gives an N-terminal tag for PEPut; Tetramer: legends give 16 nM monomers as 4 nM tetramers; also called full-length PykA; wild-type PykA; source: E. coli Rosetta (DE3), purified (HisTrap IMAC, TEV cleavage, reverse IMAC, Superdex 200 gel filtration)
- Kd ([1]; both partners purified): 14.6 nM

B2: primed probe, 30 mer on 5'-biotinylated 110 mer (mixed)
DNA 1: CACACACACACACACACACACACACACACACACACACACACACACACACACACACACACCCCCTTTAAAAAAAAAAAAAAAAGCCAAAAGCAGTGCCAAGCTTGCATGCC
DNA 2: AGGGGGTGTGTGTGTGTGTGTGTGTGTGTG
- binding result [2]: no binding
- binding result [3]: no binding
- binding result [4]: no binding
- Kd [5]: 146 nM
- Kd [6]: 7.33 nM
- Kd [7]: 14.6 nM
